{"source": "the DeepSol protein solubility set"}
{"assay": "soluble on expression in E. coli; label from the status in PepcDB or PDB records"}
{"sequence": "MGSDKIHHHHHHMEDTQSVLQEYGLTAQFIEPVSPLVWKVYTDYGIFALKKLKEGRGKHFTDHMVAIEEKGFRSFVPVYRTNSGEFFSAGIQYGDIYYLMPWLQFDQEEERDQKHAYLFRETARLHERTAQELKVRRDEIERYYGQTKKKWEQDKIFYEQFVDRAEKEWYLSPFELQAITYFSETISAVNFALERLEDWYESAKEKDVSRVVMNHGSLSIHHFLYNDAGTGYFTNFERASVGPPQNDLLGFYTKMFRGFPKACPECVEWFYGYTKSFPLREAEVSLFLSYMAYPAAMYKVLNGYQTGKRQHEKEECTQLLKAYWQMKNIEPFVMKIHQIEQEKKFQAENESTS", "soluble on expression in E. coli": "not soluble"}
{"sequence": "MGSDKIHHHHHHMEDYEGKFSPSELKLKGIHTSTTFWTVGMIVQQYKNGHLVIPKIQRGYVWNEEKARRFIMSLLQGFPIPPIFIIELSGKFYVVDGQQRIRTILWFLGEDNELLEKLGPLRVPIKELAENYNEYGVTNLSEAIIKKIIFGNHPKEFNYKYFTKDFRQYFESLSIPVQHISISSGKEYILTDIFLRINQGSVKLSAMELWRVYYGKDIEEYFHKLNELARYTVAKIYEVSNGKISRQKLERFRIDEFILTFDVLINGLITPPNYIPKDAKLGAVIFSQKTTLKKVKIFVLENRRKVFKNNKGELKKFLDYLEREYKEILKMITYVLGEFTFRRPTIGNECQYALIRPSGNDINEAVFLYEVAIFKLLKDNGHSELIYENKDFIKHVILTSLIENDELFSRSTSTFRSVANKLELAKLTYKKIITKEDNITKDNLKRLLYEKFRASRVSNPVCPYCKEPISDISVADLAHIRPLAFGGQTYIHNLTLAHSTCNRRFGVRDISQYINRC", "soluble on expression in E. coli": "not soluble"}
{"sequence": "MGSDKIHHHHHHMEEEMLKCKRLFVSDMDGTFYLGNTLLPGSLDFAMAVHRLGARLVFLTNNSSRTPEEYIRKLEKMGVDRKLFQVYTSGEATISFLKRDFAKKKAFLLSTPSVREMFEKGGVMLDDFDPEVLVLAFDTSITYEKIRRAALLIRQGIPYVASHPDINCPTEEGPIPDVGSLISLFETSTGRRPDHIIGKPDPAILKMVMEDFDCSQEETVVIGDRLYTDIECGLKAEVDTFLVLSGETTRDMIPDRHSYKVVENVGSLAKKIRDHDTV", "soluble on expression in E. coli": "not soluble"}
{"sequence": "MGSDKIHHHHHHMEELFTYKEFIKMMQNYGIRHKKRKLRRNENVMTNSSSPNSVILLIKGYICSYTCESPETLLSVFEPGVFLSYSILEDLPPLVTNIALSEECIVYEYEKEDIEYALSLFPENFGFQYFFLKKIGRHLYYKALLNAKDHQEKLYYTIKYLGKLIGEKDGKGNIVLPPEITIKILIEYSTLSKAAFYRQRIRLIEEEILKPHKKTFLVPKKVVKHYEKQLTSI", "soluble on expression in E. coli": "not soluble"}
{"sequence": "MGSDKIHHHHHHMEHTRLHNKGLTLDKIFLKTLRTTHNGFLTDGKDRIGYGEFYDRVIAIAEELHRDLGENRTVSVMDWNTLNFATLLYAVPLSGNVLHPVDVRQPPEQVMSSMKEAQSSYLLYSADFGRLADAVKTSGIVKEDNIRSTKEVFDESTDHKPGNAGLPELEEDRIASVLFSSGTTGKPKGVRYRHRDIVLTIWAMETNLSAFPGPARLASSDTVFSLIPFFHLWSWGTLYISTLIGASYVVGGRFDPGSTSDLIKRNGVTWMSMVPTMFNALISWDRNSLDGMKILIGGSAIPSGILNFASDHQIELTGIYGFTDGLAAGIGTSNINGSLSERNADAVNAITPLVFTDFEVEGENNEIKFRSPWIPEGYFNVQEERAYRDGWFYPGDSAEFTQDGKIRIRDRIKDLIKSGGEFIPSALLEYYISEIGDIGDVAVIGVHDDKWIERPVAIYRTRSGATVNDEIIRSYLKDLSNKGLIRDWWIPDRFIPVDSMPMTGTGKIDKKTLRAMLEKGDLRTDRK", "soluble on expression in E. coli": "not soluble"}
{"sequence": "MGSDKIHHHHHHMEHTYRLVISCPDRVGIVAKVSNFLSTYNGWITEASHHSDTQAGWFFMRHEIKAESIPFGLDQFRAAFEPIAREFNMNWHIADSARPKRVILMCSKESHCLADLLHRWHSKELNCEIVAVISNHDDLRRMVEWHEIPYHHVPVSKENKAEAFAHIDELFQQYETDVVVLARYMQILPAELCGKYSGKVINIHHSFLPSFAGARPYHQAYSRGVKLIGATCHYVTQDLDEGPIIEQDVIRISHSDSIEDMVRLGKDVEKNVLARGLRSHIEDRVITYENKTVVFD", "soluble on expression in E. coli": "not soluble"}
{"sequence": "MGSDKIHHHHHHMEKDRHEIEIFKIDQMFIGDSQEELIKQGEGRRKEHPIAAISTFNPVKRDVFQLIKLTEEKMIPELLGMRHKRMMQNPFSYFRATAGIMEKDLRQFPDGQSHIPVIICGDSHLTNFGFFASPERHLLFGLNDFDEARIGNWEFDLKRLLTSVVLIGRINGYPKEQLDGILAESVHSYRRGIKYANSLPLLDRFNLSYSVDDLLGQMTDNEQMKRVLLKVADRAPKKNSDAVVKKFTEKTEDGRLRFKKNPPRARRVSQKVYAELMASLEDYQKSVADDIRVLLINYEVTDIIRYSVGVGSWGTRCYLALLTGKDGSHLVLQIKEALPLRYNLSALTVEESQAQGKGEGKRIITAQRVLQTYHDPFLGAMEAGGRSFYVRQFRDMKDSIDPLNLDQESFSAYCNMCAFILAIAHYQSPTAPMIYGYVHKQKELDTGLAHWAVKYADQMEADYTCFAKYLQGEGDEE", "soluble on expression in E. coli": "not soluble"}
{"sequence": "MGSDKIHHHHHHMEKFIESVANFIDEEDVKVLKAIGSDPIVLHSIKKIFDYPEKANKYLILLRDSPVAVYLVAKISERLSRYLEGEDEAKCFAVFLTALRELRECGDRRVLQNMFLLLKEAIERRLSDGKYEDAAKLVMEFQDFGFKSYVKKVLFFALEVSEEGDYRRAMRILELLPETDAVIDAKASVLLEWGRSLAMSNPEAGMKKIEESLRLKDTVEARLAMAEIHESMGNYEKAYFIYTSLRSLYPGIDRRIARMLMEWGEEIGDVEKLREAYNLAMGDRLLAEEIERRIKKLEAQRLSGS", "soluble on expression in E. coli": "not soluble"}
{"sequence": "MGSDKIHHHHHHMEKVKAILFDKDGTLMDFHSIWIKVAEELVAEYIKLYQLPQSMQPTLLKEIGVDGVFVHPRSAIAAGTSLDVAKGLCKYITSSKEEEMHEWVSEKLFALMYEHRSYMKMTADLPRILQSLKDRGFILGVVTADDFAPTELFLKQYQLETFFDYVVASDTFAAQKPDKRIIESFCERFHLKACEVAVVGDTPTDLYLAKNGDCYAIGVLSGTGNRQTLEPLADLVVQSVGDFISHSGEFVWEKGKSNV", "soluble on expression in E. coli": "not soluble"}
{"sequence": "MGSDKIHHHHHHMELEKIRKLYEKVDPSQLTEREKLLTELIFTDRKLKTDKLPNGRYRILQFSGNNFEELENTLKLLLPDFVKSIGEEKIVIEAFSTDSPTNSELFDIFQTLSQDMGEEVTAYVGRFVEKNKLSEVYSEEYKIFESQQTFSEYILSESLNLSENRILQEIRKELLENPEDQKLVEAMYKASSNQTKAAKILYVHRNTLINKIKKYEQKYGLQLSGSDLTLAYNLL", "soluble on expression in E. coli": "not soluble"}
{"sequence": "MGSDKIHHHHHHMELKDYFPEMQVGPHPLGDKDWMSIKEGDQYVHFPKSCLSEKERLLLEVGLGQCEVLQPLGSPWQRYLLDHQGNPPQLYETSQFIYLNHQQALPDDLVELLQQMIAGLEVILPISATQTAFLCRQAISIKVLRWLEDLLPTLESDFGLALTMFVGNAWYQVAAGTLRECFEEECQLLTAYLRQQSGRKLLTFSGLMLWSLLSHHTFLALTRQFHQFLSPQSDMADVVHALWSEHGNLVQTAQRLYIHRNSLQYKLDKFAQQSGLHLKQLDDLAFAHLFLLKY", "soluble on expression in E. coli": "not soluble"}
{"sequence": "MGSDKIHHHHHHMELKEHFNNKIFKLISETADELGLECYVVGGYVRDIFLKRPSKDIDVVVVGSGIEMAQAFGRKLGRGARVSVFKNFGTAQIKYHDTEVEFVGARKESYSHDSRKPVVENGTLEDDQNRRDFTINAMAVCLNKARFGELVDPFNGLDDLKERTIRTPLDPDITFSDDPLRMMRCVRFATQLNFYIDDTTFEALSRNKERIHIISKERIADELNKILLAPIPSKGFIELDRCGLLPLIFPELVALQGVETRNGRAHKDNFYHTLEVVDNISKHTDNLWLRWATLLHDIGKPRTKRWEPRIGWTFHNHNFIGEKMVPDLFRKMKLPMNEKMKYVQKLVSLHMRPIVIADDVVTDSAVRRLLFEAGDDIDDLMMLCEADITSKNEARKQKFLDNFKLVRQKLKDLEEKDRIRNFQPPVDGEEIMRIFDLQPCREIGSLKSSIKDAILDGIIPNEHDAALEHMLKKAKSMGLTPKNL", "soluble on expression in E. coli": "not soluble"}
{"sequence": "MGSDKIHHHHHHMELTESIRLLFPPEERAQLDISAIKGDASNRQYYRVTGQGSVSVVCADPAFRATAVENYPFLIVRDLFARHGIRVPELLGMVHEQGLLRLEDCGDLMLQDEVPLLDRNRLSARYRQVIDLLVRIQSIRPDKDALTTTLPFSLSFDHEKLMFEFDFFIEHALNGYFAGRLGKPAIARLREEFINICDLLVLPKHFVLNHRDFHSRNIMLFRAEPVVIDFQDARLGLPQYDAVSLLRDSYVRLDPGMVNELKRYHFNQLVQLGLTSMGEAEYLRLFDLMAFQRNVKAIGTFCYQTTVAGNRTFEPSIAATLSYLREYIEARPELAMAGRLLKPIIPEISR", "soluble on expression in E. coli": "not soluble"}
{"sequence": "MGSDKIHHHHHHMEMDERFKDKWYLVKYKFFSNPFYKDFDVYDSSNNVVFTARMNALNPVTRDIVVYEVNKARSEILLISGKHFIRWPNNFEMTSIATREKIGTFRNGPAGWAVLDEYGRQVAILKRIEDPSGAIMYQIRMDSTSVCEYRFINIITPVIMIDFPDESIFSKKMGIGLALVLGYQSVAFNYTYQGW", "soluble on expression in E. coli": "not soluble"}
{"sequence": "MGSDKIHHHHHHMENQNHAFNYAYLLKQVKARVLLAQKKAIYTANEEMLSMYWDIGKLLSESQKQIGWGNNALEKLANDLKNDYPEMKGFSVRNCQFMIQFYNEYNQQLTNTKRAVSYLNNNEIVLPISKLGWSHNITLMQRTKDIKARYWYMIQCLKNGWSRDFLIEAIKQDYYHSHGALASNFDTTLPEIQAKQVKETLKDPYIFDMLTFTEEYDERDIELGLIKHIEKFLVEMGAGFAFMGRQYHIEVSEKDFYIDILMYNAFMHRYLVVELKRGEFQPEYIGKLNFYCSAVDDILCREGDNPTIGLLLCQNKDQIMAEYALRDVHKPIGISDYELGQALPKDIKSGLPSIEELENKLSRDLQDIDNKE", "soluble on expression in E. coli": "not soluble"}
{"sequence": "MGSDKIHHHHHHMENYKERKLIAIDLDGTTLQSDGRSISRYTKYIFKQVESLGHIICITTGRPFRMSLDVYRELELTSPVINFNGALISMPNDKNWEHTKSYYIDRSFIFDLLRHQQNFNLHFFAVEYRRKFFLNTFRNVEPKLFGVEKFQPYNRLRADRVTENPHAVLLSTRQKDKLALAEEMKRHYNGKIDVGVWGGPNGILEVVPKGISKASGLNHLLKVLDIPLENLIAFGDEHNDIEMFKLAPNAYAMKNASARLTPYASEILPWTNDEDGVARQLEKLFLTPNK", "soluble on expression in E. coli": "not soluble"}
{"sequence": "MGSDKIHHHHHHMEPGSQVTDRLRFGCTGCGKCCTGHHVPLTLAEARRWAEDAGQVVVLIEAFVVDGPGMPLEQRDHVLRRSHPVHCGEGEARVSVTFAAFNPGRCRNLDANDLCTIYEQRPLVCRIYPVEINPHIPLRPDSKDCPPEAWQQGPELIHGTQLVDVELQALVQASRQADRDDIAAKVAVCQALGMTTSALKGNGFTAYLPDMGAFAAALAQVQGNEGAQWTLHVQDEALTASLQALGLRTTHETPVYYAFIGF", "soluble on expression in E. coli": "not soluble"}
{"sequence": "MGSDKIHHHHHHMEQSATPACSICFPDSICRISPSSPLASPNGDEYHMKIALLCSGLGNVQRGHEIFVRDLFDMLKGSVDITLFKGGGEPAPNELVIDNVSRNAPSLQNIHLAVSPRWKVAMQEQERIRIETETFAHAALRPLLEGGYDIIHCLEQEVCNRLYGFRHLFAHTPKFLFSNGGAIPAAKLSNCDFVQEHTEYNLQHSAREKAFCIPHGVDIQRFNPSISSDFRARYGIAEDAFVVISVGIICYWHKRMDYLIKEVAQIPEAHLLIVGQECADTPAIKALGEKLMPGRITFTKMPHDELPQAYAAADVFALGSLFETFGIVYIEALAMGLPVFCTEHPNQRSIVREGVFLDIKQAGALRDALLKRDPAQMRYLRERGPQIARETYALEKLKSAYIEHYQRIAASEVSLPRYTFKTKLQDNVRSLYRRLSRG", "soluble on expression in E. coli": "not soluble"}
